Data on 4 molecules can be found in paper PMC5467213, “Architecture of the RNA polymerase II-Paf1C-TFIIS transcription elongation complex” (Nature Communications, 2017).

B4: Cdc73 (natural protein, S. cerevisiae, UniProt Q06697 1-393, looked up)
chain: MANSLDRLREHLKNGDKLVLKNNEGQSTDDITKATMVETLSSDGSTQDSFPLNEETEIEIDGSLVQLRIIVHCWMNKDSSAADYLADCQNKQLTNVSFLQRTDLINWLSGNTESSQYLKAPGQKGETSDKVDIENKTLAGELSTVKSTTSASLENDSEVSDPVVVETMKHERILVDHNSALRGAKPINFGYLIKDAELKLVQSIKGSLRGSKLPPGHKGAHGRISKTNGSSGGPRKDPIILIPSAASSILTVANIKQFLLESKYVNPRNLPSVPNGLVNIEKNFERISRPIRFIIVDNTRMFTKPEYWDRVVAIFTTGHTWQFNNYQWNSPQELFQRCKGYYFHFAGDSVPQHVQQWNVEKVELDKNKRFKDVEVVRYFWHSLEKELISRGYR
notes: Cdc73, S. cerevisiae, full length, amplified from genomic DNA; source: E. coli BL21 CodonPlus(DE3)RIL, coexpressed with the other subunits; in lysate and purified as part of Paf1C

In one assay the target is T1, Rpb2 (Pol II subunit) (yeast, UniProt P08518 1-1224).
T1 construct: Rpb2, subunit of yeast Pol II; source: part of purified Pol II
The experiment in a line: cross-linking; Pol II-Paf1C-TFIIS EC after SEC, 425 μg/ml, 0.5 mM BS3, 30 min, 30 °C; trypsin, Orbitrap Fusion LC-MS/MS, pLink, FDR 1%. Conditions: both partners purified.

The target of another assay is T2, Ctr9-ΔC913 (S. cerevisiae, UniProt P89105 1-913).
T2 construct: Ctr9, S. cerevisiae, variant lacking 164 amino acids at its C terminus (Ctr9-ΔC913); also called Ctr9 (in the Pol II-Paf1C-TFIIS EC); source: E. coli BL21 CodonPlus(DE3)RIL, coexpressed with the other subunits; in lysate and purified as part of Paf1C-Ctr9-ΔC913
T2 sequence (looked up): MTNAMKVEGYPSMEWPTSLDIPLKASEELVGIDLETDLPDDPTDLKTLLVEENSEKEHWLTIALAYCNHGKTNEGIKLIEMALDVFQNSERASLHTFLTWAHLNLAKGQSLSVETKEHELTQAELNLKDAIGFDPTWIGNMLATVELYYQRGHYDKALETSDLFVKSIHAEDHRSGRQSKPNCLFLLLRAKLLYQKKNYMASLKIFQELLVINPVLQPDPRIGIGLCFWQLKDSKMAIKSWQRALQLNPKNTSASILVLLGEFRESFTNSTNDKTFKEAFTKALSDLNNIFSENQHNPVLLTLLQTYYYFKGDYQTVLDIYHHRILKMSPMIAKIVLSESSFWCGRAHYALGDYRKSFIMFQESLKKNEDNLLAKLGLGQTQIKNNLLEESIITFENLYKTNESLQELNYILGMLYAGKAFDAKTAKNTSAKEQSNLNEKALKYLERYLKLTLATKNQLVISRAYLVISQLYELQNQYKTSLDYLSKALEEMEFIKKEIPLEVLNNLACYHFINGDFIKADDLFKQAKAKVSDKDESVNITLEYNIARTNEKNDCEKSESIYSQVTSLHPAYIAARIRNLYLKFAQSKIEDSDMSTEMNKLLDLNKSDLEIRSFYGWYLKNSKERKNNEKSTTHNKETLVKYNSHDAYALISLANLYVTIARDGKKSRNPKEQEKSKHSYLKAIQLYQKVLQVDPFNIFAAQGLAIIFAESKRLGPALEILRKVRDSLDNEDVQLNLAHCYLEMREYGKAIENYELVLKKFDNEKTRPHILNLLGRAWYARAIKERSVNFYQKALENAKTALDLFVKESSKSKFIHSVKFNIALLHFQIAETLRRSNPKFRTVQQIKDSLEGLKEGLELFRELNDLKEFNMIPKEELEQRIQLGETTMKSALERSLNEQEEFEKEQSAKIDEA
Described as above. Conditions: both partners purified.

A further assay deals with T3, Rpb1 (Pol II subunit) (yeast, UniProt P04050 1-1733).
T3 construct: Rpb1, largest subunit of yeast Pol II; source: part of purified Pol II
The assay is described as above. As to conditions: both partners purified.

For a further assay, the target named is T4, Rtf1 (S. cerevisiae, UniProt P53064 1-558).
T4 construct: Rtf1, S. cerevisiae, full length, amplified from genomic DNA; source: E. coli BL21 CodonPlus(DE3)RIL, coexpressed with Cdc73; in lysate and purified as part of Paf1C
The assay is described as above. Conditions: both partners purified.

In assay [1] the target is T5, Ctr9 (full length, C-terminal hexahistidine tag) (S. cerevisiae, UniProt P89105 1-1077).
T5 construct: Ctr9, S. cerevisiae, full length, amplified from genomic DNA, in pET24b; source: E. coli BL21 CodonPlus(DE3)RIL, coexpressed with the other subunits; in lysate and purified as part of Paf1C; not shown: His6, C-terminal, kept
T5 sequence (looked up): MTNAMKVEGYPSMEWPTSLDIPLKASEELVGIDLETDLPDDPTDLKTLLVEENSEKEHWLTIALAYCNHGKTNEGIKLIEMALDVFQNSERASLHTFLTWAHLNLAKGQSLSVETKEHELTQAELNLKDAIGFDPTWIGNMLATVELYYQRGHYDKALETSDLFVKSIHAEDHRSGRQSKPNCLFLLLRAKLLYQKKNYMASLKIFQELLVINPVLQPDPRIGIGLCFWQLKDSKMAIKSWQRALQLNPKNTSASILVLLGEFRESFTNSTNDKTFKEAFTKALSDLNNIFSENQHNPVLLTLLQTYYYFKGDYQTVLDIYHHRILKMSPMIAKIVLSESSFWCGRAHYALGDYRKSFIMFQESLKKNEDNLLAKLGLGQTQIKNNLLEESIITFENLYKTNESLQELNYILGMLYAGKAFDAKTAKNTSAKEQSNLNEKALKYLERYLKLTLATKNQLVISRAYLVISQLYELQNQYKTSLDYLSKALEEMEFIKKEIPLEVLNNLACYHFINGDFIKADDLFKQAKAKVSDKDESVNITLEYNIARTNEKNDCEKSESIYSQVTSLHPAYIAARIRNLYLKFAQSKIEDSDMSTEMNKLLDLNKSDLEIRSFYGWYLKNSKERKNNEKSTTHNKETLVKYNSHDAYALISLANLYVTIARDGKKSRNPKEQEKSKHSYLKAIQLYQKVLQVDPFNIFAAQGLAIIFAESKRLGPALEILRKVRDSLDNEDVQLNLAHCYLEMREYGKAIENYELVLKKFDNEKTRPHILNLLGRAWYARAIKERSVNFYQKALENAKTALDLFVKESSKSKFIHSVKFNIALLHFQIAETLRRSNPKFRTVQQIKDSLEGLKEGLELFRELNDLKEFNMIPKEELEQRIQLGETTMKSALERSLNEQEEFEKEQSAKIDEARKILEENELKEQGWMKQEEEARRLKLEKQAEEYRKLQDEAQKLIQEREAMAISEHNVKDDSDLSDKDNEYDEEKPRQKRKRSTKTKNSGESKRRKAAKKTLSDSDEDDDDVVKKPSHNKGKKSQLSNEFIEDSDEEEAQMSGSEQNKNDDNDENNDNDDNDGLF
The experiment in a line: co-purification after coexpression (Ni-NTA, cation exchange, SEC); subunits coexpressed in E. coli from three vectors, cells colysed; Ni-NTA (hexahistidine tag on Ctr9), HiTrap SP cation exchange, Superose 6 size exclusion; SDS-PAGE, subunits confirmed by mass spectrometry. Conditions: partners not purified.

The assay “Cdc73” has as its target B4. The experiment in a line: cross-linking; Pol II-Paf1C-TFIIS EC after SEC, 425 μg/ml, 0.5 mM BS3, 30 min, 30 °C; trypsin, Orbitrap Fusion LC-MS/MS, pLink, FDR 1%. Conditions: both partners purified.

T1 sequence (P08518 whole entry): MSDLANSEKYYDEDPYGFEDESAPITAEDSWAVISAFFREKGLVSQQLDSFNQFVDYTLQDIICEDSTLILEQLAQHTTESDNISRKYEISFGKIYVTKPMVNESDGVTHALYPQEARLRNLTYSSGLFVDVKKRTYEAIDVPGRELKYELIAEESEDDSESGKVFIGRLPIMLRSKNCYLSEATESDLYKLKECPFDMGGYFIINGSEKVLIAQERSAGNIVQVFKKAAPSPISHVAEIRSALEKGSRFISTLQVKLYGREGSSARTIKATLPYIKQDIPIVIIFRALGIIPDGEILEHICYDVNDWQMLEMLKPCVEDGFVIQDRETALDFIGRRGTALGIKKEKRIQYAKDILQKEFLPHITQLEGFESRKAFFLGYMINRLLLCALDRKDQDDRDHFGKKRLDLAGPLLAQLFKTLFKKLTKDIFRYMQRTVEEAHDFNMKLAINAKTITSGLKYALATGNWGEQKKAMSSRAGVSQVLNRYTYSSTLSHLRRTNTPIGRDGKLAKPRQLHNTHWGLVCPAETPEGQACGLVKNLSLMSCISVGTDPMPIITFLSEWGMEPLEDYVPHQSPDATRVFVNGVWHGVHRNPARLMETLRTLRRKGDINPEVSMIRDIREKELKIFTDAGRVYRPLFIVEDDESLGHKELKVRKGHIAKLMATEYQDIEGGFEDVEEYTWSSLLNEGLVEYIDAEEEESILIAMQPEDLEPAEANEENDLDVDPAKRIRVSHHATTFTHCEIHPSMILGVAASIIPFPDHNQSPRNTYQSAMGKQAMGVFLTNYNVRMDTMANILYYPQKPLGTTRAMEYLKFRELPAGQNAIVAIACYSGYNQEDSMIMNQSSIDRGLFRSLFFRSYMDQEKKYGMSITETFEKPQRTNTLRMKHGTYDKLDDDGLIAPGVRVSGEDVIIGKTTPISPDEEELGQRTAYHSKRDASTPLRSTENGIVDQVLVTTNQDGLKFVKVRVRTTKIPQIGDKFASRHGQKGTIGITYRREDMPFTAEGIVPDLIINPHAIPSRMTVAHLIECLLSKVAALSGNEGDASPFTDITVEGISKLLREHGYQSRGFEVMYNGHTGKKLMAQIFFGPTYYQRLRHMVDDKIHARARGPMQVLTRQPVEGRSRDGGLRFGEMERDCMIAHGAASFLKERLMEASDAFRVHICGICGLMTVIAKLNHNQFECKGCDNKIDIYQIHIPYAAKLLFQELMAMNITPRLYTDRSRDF
T4 sequence (P53064 whole entry): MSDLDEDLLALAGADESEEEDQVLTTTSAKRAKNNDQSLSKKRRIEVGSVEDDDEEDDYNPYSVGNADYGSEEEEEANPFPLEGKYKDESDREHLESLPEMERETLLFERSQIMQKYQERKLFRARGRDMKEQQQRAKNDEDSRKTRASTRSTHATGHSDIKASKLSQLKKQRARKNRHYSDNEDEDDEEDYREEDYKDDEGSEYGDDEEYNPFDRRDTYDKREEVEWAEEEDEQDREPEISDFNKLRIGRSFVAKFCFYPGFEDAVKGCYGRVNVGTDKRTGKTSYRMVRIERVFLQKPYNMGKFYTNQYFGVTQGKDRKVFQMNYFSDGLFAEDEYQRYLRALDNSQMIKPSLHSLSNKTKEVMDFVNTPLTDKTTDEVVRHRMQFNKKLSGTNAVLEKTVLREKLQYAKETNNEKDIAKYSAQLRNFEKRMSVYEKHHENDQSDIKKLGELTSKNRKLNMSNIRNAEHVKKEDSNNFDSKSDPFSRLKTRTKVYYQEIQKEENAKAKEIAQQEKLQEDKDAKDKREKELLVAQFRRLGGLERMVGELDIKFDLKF
T3 sequence (P04050 whole entry): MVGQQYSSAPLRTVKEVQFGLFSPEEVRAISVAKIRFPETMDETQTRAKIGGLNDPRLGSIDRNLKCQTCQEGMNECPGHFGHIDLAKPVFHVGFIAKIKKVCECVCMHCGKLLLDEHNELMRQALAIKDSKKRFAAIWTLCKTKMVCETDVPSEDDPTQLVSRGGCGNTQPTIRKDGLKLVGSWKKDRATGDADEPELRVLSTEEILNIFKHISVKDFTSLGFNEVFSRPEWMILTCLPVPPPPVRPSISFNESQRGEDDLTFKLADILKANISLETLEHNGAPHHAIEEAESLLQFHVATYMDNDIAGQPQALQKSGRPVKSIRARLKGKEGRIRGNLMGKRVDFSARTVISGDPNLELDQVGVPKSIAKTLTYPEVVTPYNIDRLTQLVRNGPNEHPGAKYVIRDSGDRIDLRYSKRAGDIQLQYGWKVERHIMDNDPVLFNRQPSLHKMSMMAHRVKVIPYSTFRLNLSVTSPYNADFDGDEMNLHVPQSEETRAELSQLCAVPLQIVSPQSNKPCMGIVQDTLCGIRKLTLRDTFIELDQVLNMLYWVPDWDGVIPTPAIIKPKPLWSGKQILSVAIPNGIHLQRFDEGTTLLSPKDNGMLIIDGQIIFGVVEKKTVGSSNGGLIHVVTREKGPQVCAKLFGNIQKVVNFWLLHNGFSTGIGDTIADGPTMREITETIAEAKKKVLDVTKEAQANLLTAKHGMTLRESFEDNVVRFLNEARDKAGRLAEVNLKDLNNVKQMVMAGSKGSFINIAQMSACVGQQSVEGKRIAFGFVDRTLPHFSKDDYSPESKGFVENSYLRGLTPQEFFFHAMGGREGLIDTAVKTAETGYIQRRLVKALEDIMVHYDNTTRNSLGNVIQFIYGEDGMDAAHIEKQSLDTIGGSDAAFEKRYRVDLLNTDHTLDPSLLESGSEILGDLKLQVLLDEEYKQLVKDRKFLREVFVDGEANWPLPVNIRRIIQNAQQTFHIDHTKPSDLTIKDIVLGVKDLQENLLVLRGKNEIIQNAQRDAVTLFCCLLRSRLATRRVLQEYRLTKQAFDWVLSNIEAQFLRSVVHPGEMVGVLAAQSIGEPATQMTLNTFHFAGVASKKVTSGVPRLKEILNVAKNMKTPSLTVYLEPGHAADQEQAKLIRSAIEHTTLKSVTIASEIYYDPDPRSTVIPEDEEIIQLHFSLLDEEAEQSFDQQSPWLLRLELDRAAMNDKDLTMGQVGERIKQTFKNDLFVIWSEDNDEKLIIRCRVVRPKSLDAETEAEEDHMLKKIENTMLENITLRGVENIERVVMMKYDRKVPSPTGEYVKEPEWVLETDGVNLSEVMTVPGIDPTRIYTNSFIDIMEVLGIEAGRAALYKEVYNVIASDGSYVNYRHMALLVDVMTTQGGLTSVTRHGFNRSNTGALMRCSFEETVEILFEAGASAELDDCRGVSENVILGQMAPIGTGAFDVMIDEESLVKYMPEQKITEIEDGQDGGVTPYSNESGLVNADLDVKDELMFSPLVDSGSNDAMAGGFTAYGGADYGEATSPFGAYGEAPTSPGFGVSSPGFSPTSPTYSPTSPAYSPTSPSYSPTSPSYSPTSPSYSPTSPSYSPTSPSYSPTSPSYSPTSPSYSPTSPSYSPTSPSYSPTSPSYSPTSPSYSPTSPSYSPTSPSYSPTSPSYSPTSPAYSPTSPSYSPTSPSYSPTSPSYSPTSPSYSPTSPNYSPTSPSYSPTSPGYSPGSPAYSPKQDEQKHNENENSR

B1: Leo1 (natural protein, S. cerevisiae, UniProt P38439 1-464, looked up)
chain: MSSESPQDQPQKEQISNNVGVTTNSTSNEETSRSQDDNVKEVNGNDDTKEEEQEEDAELDDLFGDDNDDDDDDDVKKSETEKSDSDSDEDDEGENINHRSRHRESLGLDDDEAEEQAMYTRKFYGEDANNFSDQDETTHTFKEENVELVRHIIPSKANVNETASHNEIFYARIPNFLTIDPIPFDPPSFEAKVNERASNSASREDQLDDRLIDENTVRWRYSRDKDQHVFKESNTQIVQWSDGTYSLKVGEECTDILVNDTSNTFLTVSHDQQELIQCYEGGEIKKTLMFIPTSTNSKIHQKLSKAVIRRNQRQSKGPGTYIVSMDPEVEKKELERKQSQILRDRRRRQLKEKEKQESPDAAFETGFRKQNSPTTYGASRRNEYEEDDFLVDDDEEEEAAFDDEEDDNEEEEEEEDADEENASRLRNLKREGAAMYREEEEEEKDRSETKRRRVAVIEDDEDED
notes: Leo1, S. cerevisiae, open reading frame chemically synthesized (codon-optimised), in pCDFDuet-1; source: E. coli BL21 CodonPlus(DE3)RIL, coexpressed with the other subunits; in lysate and purified as part of Paf1C
For B1, the binding result (in the assay with Rpb2 (Pol II subunit); with Ctr9-ΔC913; with Rpb1 (Pol II subunit); with Rtf1; in assay [1]) was “binds” each time.

B2: Rpb11 (Pol II subunit) (natural protein, yeast)
chain: MNAPDRFELFLLGEGESKLKIDPDTKAPNAVVITFEKEDHTLGNLIRAELLNDRKVLFAAYKVEHPFFARFKLRIQTTEGYDPKDALKNACNSIINKLGALKTNFETEWNLQTLAADDAF
notes: Rpb11, subunit of yeast Pol II; source: part of purified Pol II
For the molecule B2, the binding result with Cdc73 is recorded as “binds”.

B3: Rpb3 (Pol II subunit) (natural protein, yeast)
chain: MSEEGPQVKIREASKDNVDFILSNVDLAMANSLRRVMIAEIPTLAIDSVEVETNTTVLADEFIAHRLGLIPLQSMDIEQLEYSRDCFCEDHCDKCSVVLTLQAFGESESTTNVYSKDLVIVSNLMGRNIGHPIIQDKEGNGVLICKLRKGQELKLTCVAKKGIAKEHAKWGPAAAIEFEYDPWNKLKHTDYWYEQDSAKEWPQSKNCEYEDPPNEGDPFDYKAQADTFYMNVESVGSIPVDQVVVRGIDTLQKKVASILLALTQMDQDKVNFASGDNNTASNMLGSNEDVMMTGAEQDPYSNASQMGNTGSGGYDNAW
notes: Rpb3, subunit of yeast Pol II; source: part of purified Pol II
Take B3: in the assay with Cdc73, the binding result is listed as “binds”.
For B4, the binding result (with Rpb2 (Pol II subunit); in the assay with Ctr9-ΔC913; in assay [1]) was “binds” each time.
